Assay results: patent publication US7125541

How the values were obtained:
human endoglin (human) [1] = target: human endoglin (human) (UniProt P17813); experiment: competitive binding inhibition on HUVEC by FACS; unlabelled TEC-4 against competitor biotinylated TEC-11, ratio 1:100
human endoglin (human) [2] = target: human endoglin (human) (UniProt P17813); experiment: competitive binding inhibition on HUVEC by FACS; unlabelled TEC-4 against competitor biotinylated TEC-11, ratio 1:1
human endoglin (human) [3] = target: human endoglin (human) (UniProt P17813); experiment: competitive binding inhibition on HUVEC by FACS; unlabelled TEC-11 against competitor biotinylated TEC-4, ratio 1:1

percent blocking of biotinylated antibody (human endoglin (human) [1]) | percent blocking of biotinylated antibody (human endoglin (human) [2]) | percent blocking of biotinylated antibody (human endoglin (human) [3]) | Substance
20% | 1% | – | TEC-4 (tumor endothelial cell antibody 4)
– | – | 51% | TEC-11 (tumor endothelial cell antibody 11)
